According to publication PMC4826270:

Molecular target: SecA* (SecA795C labelled with 5-iodoacetamidofluorescein) (UniProt P10408)
Experiment: other fluorescence titration; SecYEG variant in detergent titrated into 10 nM fluorescein-labelled SecA*; quenching read at 522 nm; 20 mM Tris pH 8, 130 mM NaCl, 10% glycerol, 0.02% DDM, 2 mM MgCl2, 1 mM AMP-PNP; fitted to a tight binding equation

Kd	Substance
135 nM	SecYEDPEG (SecY_(R357E/P358D/G359P)EG) (from UniProt P0AGA2 1-443; P0AG96 1-127; P0AG99 1-110) (complex)
36 nM	SecY_(prlA4)EG (SecY_(F286Y/I408N)EG) (from UniProt P0AGA2 1-443; P0AG96 1-127; P0AG99 1-110) (complex)
42 nM	SecY_(prlA4-EDP)EG (SecY_(F286Y,I408N,R357E,P358D,G359P)EG) (from UniProt P0AGA2 1-443; P0AG96 1-127; P0AG99 1-110) (complex)
